B1: SB3: human SerpinB3 protease inhibitor protein, produced recombinantly; incorporated in wet silica sol-gel (8% SiO2) (protein, UniProt P29508 1-390, looked up)
Serpin B3: MNSLSEANTKFMFDLFQQFRKSKENNIFYSPISITSALGMVLLGAKDNTAQQIKKVLHFDQVTENTTGKAATYHVDRSGNVHHQFQKLLTEFNKSTDAYELKIANKLFGEKTYLFLQEYLDAIKKFYQTSVESVDFANAPEESRKKINSWVESQTNEKIKNLIPEGNIGSNTTLVLVNAIYFKGQWEKKFNKEDTKEEKFWPNKNTYKSIQMMRQYTSFHFASLEDVQAKVLEIPYKGKDLSMIVLLPNEIDGLQKLEEKLTAEKLMEWTSLQNMRETRVDLHLPRFKVEESYDLKDTLRTMGMVDIFNGDADLSGMTGSRGLVLSGVLHKAFVEVTEEGAEAAAATAVVGFGSSPTSTNEEFHCNHPFLFFIRQNKTNSILFYGRFSSP

Experiments:
[1] = Release of BSA-FITC from wet silica sol-gel suspended in 3% HPMC hydrogel or buffer (dialysis tubes); format: physicochemical; conditions: BSA-FITC in silica hydrogel (SiO2 8%), equal volume of release buffer or 3% HPMC; PBST+0.1% BSA at 37° C.
Procedure: In a preliminary test it was evaluated if the use of hydrogel of 3% w/v HPMC as diluent for the suspension of silica nanoparticles influences the release of a protein incorporated therein. To this purpose, preparations constituted by silica hydrogel having incorporated the model protein BSA-FITC, suspended in an equal volume of release buffer or t 3% HPMC, were inserted in dialysis tubes (cut-off 100 KDa) and immersed in PBST+0.1% BSA at 37° C. At programmed time points the content of BSA-FITC was quantified in the acceptor solution by fluorescence spectroscopy.

[2] = Release of SB3 from wet silica sol-gel into buffer (ELISA quantification); format: physicochemical; conditions: wet silica sol-gel (8% SiO2 w/w), crushed manually; gels loaded at SB3 5 and 50 μg/mL; immersion in buffer at 37
Procedure: 200 μl of the prepared product containing SB3 in silica hydrogel were suspended in 10 mL of phosphate buffer 100 mM, 0.05% Tween 20, 0.1% BSA, pH 6.0 and incubated at 37° C. under slight stirring. At defined time moments (0 h, 5 h and 24 h) the sample was centrifuged (1390 g) and a small portion of supernatant (250 μl) was removed by titration of SB3 and replaced with fresh buffer. The compound was then re-suspended in the supernatant by a slight vortex and the incubation at 37° C. was continued until the subsequent moment. The concentration of SB3 in the supernatants was quantified by sandwich ELISA (kit HEPA Lisa, Xeptagen S.p.A, Vega Park, Venice) by following the manufacturer's instructions. […] After washing, the concentration of SB3 was detected by incubation with 100 μL of anti-SB3 secondary Ab conjugated with streptavidin HRP (0.5 μg/mL). The plate was developed with a solution of substrate 3,3′,5,5′-tetramethylbenzidin (TMB) ready for use. The reaction was interrupted with 1 mol/L of HCl (100 μL) and the absorbance at 450 nm was measured on a reader of microplates (Victor×3; Perkin Elmer, Waltham, MA, USA). […]

MDCK cells = assay: Scatter assay on MDCK cells; format: cell-based, canine; conditions: solution of release from gel at SB3 50 μg/mL; similar to recombinant SB3 positive control (CTR+)
Procedure: The results were represented graphically by tracing the ratio between the amount of protein released in each time point (Mt) and the total protein (Mtot) incorporated in function of time. The released functional capability of SB3 was verified by scatter assay, as previously reported (Quarta et al. J Pathol 2010; 221:343-356). In detail, canine kidney cells Madin-Darby (MDCK) (5×10^3 cells/well), were treated with two different dilutions of SB3 released by the wet silica microspheres for 5 and 24 hours. The cells were fixed in 4% formaldehyde, coloured with blue solution of Coomassie and the scattering effect was analysed by using the Axiovert 200M microscope (Carl Zeiss Microscopy GmbH, Germania). As positive control, SB3 recombinant at 200 ng/ml was used.

Molecule	Release profiles in presence or absence of HPMC hydrogel [1]	Mechanism of SB3 release (Mt/Mtot % vs square root of time, linear correlation) [2]	Scattering of cohesive cell colonies (MDCK cells)
BSA-FITC: model protein BSA-FITC incorporated in silica hydrogel	almost superimposable	–	–
B1	–	takes place through a diffusion process	induced the 20 time-depending scattering of strictly cohesive colonies of MDK cells

From US20250099379A1, “NEW SYSTEM FOR THE TOPICAL PHARMACOLOGICAL RELEASE OF AN ACTIVE INGREDIENT” (UNIVERSITÀ DEGLI STUDI DI PADOVA, priority 2022, published 2025)
